Data published in US20160139118A1, “NOVEL ASSAY” (GLAXOSMITHKLINE INTELLECTUAL PROPERTY (NO.2) LIMITED, priority 2013, published 2016).
One block for each molecule: values may come before it.

Experiments:
BAM = target: T1, BAM (Homo sapiens, UniProt P05067); test: Effect of treating agents on BAM inhibitory activity in cofactor assay; type: biochemical; details: 1 μg/mL CFI, 10 μM BAM, 37° C. 40 min with agent; then 80 μg/mL CFH and C3b
T1 construct: Beta amyloid recombinant peptide (1-42) (Ultra Pure, TFA Form) was purchased from Covance; purchased Covance
Experimental: (§1) FIG. 11 Effect of Tween 20, Triton X-100 and Guanidine on BAM Activity. The effect of Tween 20, Triton X-100, and Guanidine on the activity of BAM was tested in the cofactor assay, where 1 μg/mL of CFI and 10 μM BAM was incubated at 37° C. for 40 min in the presence of the treating agents, then 80 μg/mL CFH and 80 μg/mL C3b was added and the reactions were lasted for 1 hr 20 min at 37° C. The iC3b concentration in the reaction was then measured using the ELISA method.
(§2) As shown in Section 3.10, mouse isotype control IgGs, especially mIgG2b, caused significant background in terms of increasing CFI bioactivity by potential interaction with BAM at the level of the hinge. To reduce such an effect, multiple agents such as Tween 20, Triton X-100, Guanidine and human serum albumin were tested in the cofactor assays to see if they will interfere with CFI bioactivity or BAM activity first. […] However, the effect didn't seem to be differential (FIG. 11). Taken together, none of the agents tested so far could resolve the IgG BAM binding issue. Lastly, another strategy was tested by reversing the order of addition of the reagents. Normally, BAM and anti-BAM antibody were incubated first, then CFI was added to the mixture, CFH and C3b was added last. […]

CFI = target: T2, CFI (Homo sapiens, UniProt P05156); test: Effect of treating agents on CFI bioactivity in cofactor assay; type: biochemical; details: 1 μg/mL CFI, 10 μM BAM, 37° C. 40 min with agent; then 80 μg/mL CFH and C3b
T2 construct: purified serum CFI protein which has been successfully used in cofactor assays; purchased Complement Technology Inc (Tyler, Tex.); host or cells: human serum
T2 sequence (P05156 19-335 limits assumed): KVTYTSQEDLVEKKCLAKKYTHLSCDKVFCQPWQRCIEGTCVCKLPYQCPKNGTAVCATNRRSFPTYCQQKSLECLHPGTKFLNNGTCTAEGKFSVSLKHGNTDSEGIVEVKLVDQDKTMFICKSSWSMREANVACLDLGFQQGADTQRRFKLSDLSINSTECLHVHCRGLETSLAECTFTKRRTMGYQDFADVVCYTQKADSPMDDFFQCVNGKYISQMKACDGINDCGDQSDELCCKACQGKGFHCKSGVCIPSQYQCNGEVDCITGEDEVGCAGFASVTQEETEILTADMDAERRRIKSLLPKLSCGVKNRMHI
T2 sequence (P05156 340-583 limits assumed): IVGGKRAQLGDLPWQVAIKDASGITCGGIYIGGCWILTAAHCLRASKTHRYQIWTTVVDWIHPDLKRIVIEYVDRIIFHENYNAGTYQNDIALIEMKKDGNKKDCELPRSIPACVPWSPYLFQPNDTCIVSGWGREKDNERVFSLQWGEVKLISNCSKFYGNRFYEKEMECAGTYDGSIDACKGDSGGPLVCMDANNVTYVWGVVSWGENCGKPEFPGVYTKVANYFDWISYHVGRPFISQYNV
Experimental: as §1, §2

[1] = target: Complement C3b (Complement Technology) (human) (UniProt P01024); test: cell-based or functional assay
[2] = target: Complement C3b (Complement Technology), P01024
C3b [3] = target: T3, C3b (Homo sapiens, UniProt P01024); test: Cofactor assay of bioactivity of purified and recombinant CFI; type: biochemical; details: for estimated EC50 of CFI (95% limits in parentheses): three experiments in triplicate, CFH and C3b, 37° C. 1 hr
T3 construct: Factor I, Factor H, C3b, and iC3b proteins were purchased; purchased Complement Technology Inc (Tyler, Tex.)
Experimental: The bioactivity measurements were conducted in triplicate and run on three occasions. Both CFI stock solutions were diluted in a 1/3 log series into 8 substock solutions starting at […] CFI. To maintain the CFI bioactivity in low concentration, 10 μg/mL CFH was used. Cofactor assays were set up by mixing […] of 2×CFI substock solutions with […] of CFH and C3b 2× mixture at a final concentration of […] for each reaction. The reaction mixtures were incubated at 37° C. for 1 hr, then the iC3b production in reactions was evaluated by a specific ELISA.
In the assay, 1 mU of CFI bioactivity is defined as the inverse of the amount of CFI that generates half of the maximal concentration of iC3b that can be produced (EC50). To obtain CFI bioactivity of a sample the following calculation is applied: 1/(EC50 of CFI in μg). This equation will result in CFI bioactivity levels expressed as U/μg of CFI. […] The model fitted to the data also predicted the EC50 recombinant to purified ratio.
This value provides the amount of CFI in ng that generates ½ the maximal amount of iC3b. Dividing these amounts by 1000 we convert the numbers to μg.

C3b [4] = target: T3, C3b; test: CFI dose response in cofactor assay (conversion of C3b into iC3b); type: biochemical
Experimental: A mixture of CFH (10-80 μg/mL) and C3b (80-150 μg/mL) was added into the tubes containing the CFI or BAM/CFI mixture. After a 30 minute-incubation at 37° C., the reaction mixtures were directly diluted into Assay Buffer and used for ELISA detection of iC3b. The detailed procedures other than indicated below were performed following the instruction provided with the ELISA kit. The diluted reaction mixtures and standards were applied to the 8-well strips at 60 μL per well and incubated at RT for 30 min. After washing 5 times in a plate washer with an in house-made washing buffer (10 mM Tris, 60 mM NaCl, 0.1% Tween 20, pH7.2), the 8-well strips were loaded with 50 μL of the HRP-anti-human iC3b conjugates per well and incubated at RT for 30 min. At the end of incubation, the 8-well strips were washed in the plate washer 5 times and incubated with 100 μL of the HRP substrates provided in the kit for additional 30 min. The reaction was stopped by addition of 50 μL Stop Buffer. The absorption at 405 nm was measured within 10 minutes. […] To answer these questions, a CFI dose response study was conducted where CFI was tested in a range of 10 ng/mL to 30 μg/mL in the presence or absence of 200 μM BAM1-42 (Lot 2, aged for 7 days without sonication) in the cofactor assay. […]

T1 sequence (P05067 672-713 limits assumed): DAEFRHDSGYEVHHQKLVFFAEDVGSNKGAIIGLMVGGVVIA

Molecule: N=C(N)N [Guanidine]
effect on inhibitory activity of BAM (in words) (BAM): significantly reduced
effect on CFI bioactivity (in words) (CFI): significantly reduced

Molecule: Complement factor I, purified human serum protein (Complement Technology) (from UniProt P05156 19-583) (enzyme)
CFI bioactivity (inverse of EC50 in µg) [1]: 3070 U/µg of CFI
EC50 of CFI in cofactor assay (conversion of C3b into iC3b, with CFH), PBS control [1]: 0.686 µg/mL
EC50 of CFI in cofactor assay (iC3b generation, 80 CFH and C3b, 1 hr), three experiments [1]: 0.0326 µg/mL

B1: Mouse plasma complement factor I (protein)
chain: RSPSASDLPQEELVDQKCLLQKYTHRSCNKVFCQPWQRCIEGTCICKLPYQCPRAGTPVCAMNGRSYPTYCHQKSFECLHPEIKFSHNGTCAAEGKFNVSLIYGRTKTEGLVQVKLVDQDERMFICKNSWSMAEANVACVDLGFPLGVRDIQGSFNISGNLHINDTECLHVHCRGVETSLAECAFTKRRTELSNGLAGVVCYKQDADFPTSLSFQCVNGKHIPQEKACNGVNDCGDQSDELCCKGCRGNASLCKSGVCIPDQYKCNGEVDCITGEDESRCEEDRQQNIPKGLARSAQGEAEIETEETEMLTPGMDNERKRIKSLLPKLSCGVKRNTHTRRKRVIGGKPANVGDYPWQVAIKDGQRITCGGIYIGGCWILTAAHCVRPSRAHSYQVWTALLDWLKPNSQLGIQTVKRVIVHEKYNGATFQNDIALIEMKMHTGKKECELPNSVPACVPWSPYLFQPNDRCIISGWGRGKDNQKVYSLRWGEVDLIGNCSQFYPDRYYEKEMQCAGTRDGSIDACKGDSGGPLVCEDINNVTYVWGIVSWGENCGKPEFPGVYTRVANYFDWISYHVGRSLVSQHNV
cofactor assay with mouse plasma as source of CFI, human CFH and C3b [2]: mouse plasma CFI indeed can convert human C3b into iC3b in the presence of human CFH albeit with 10-times less activity

B2: Complement factor I, purified human serum protein (Complement Technology) (protein)
chain: KVTYTSQEDLVEKKCLAKKYTHLSCDKVFCQPWQRCIEGTCVCKLPYQCPKNGTAVCATNRRSFPTYCQQKSLECLHPGTKFLNNGTCTAEGKFSVSLKHGNTDSEGIVEVKLVDQDKTMFICKSSWSMREANVACLDLGFQQGADTQRRFKLSDLSINSTECLHVHCRGLETSLAECTFTKRRTMGYQDFADVVCYTQKADSPMDDFFQCVNGKYISQMKACDGINDCGDQSDELCCKACQGKGFHCKSGVCIPSQYQCNGEVDCITGEDEVGCAGFASVTQEETEILTADMDAERRRIKSLLPKLSCGVKNRMHIRRKRIVGGKRAQLGDLPWQVAIKDASGITCGGIYIGGCWILTAAHCLRASKTHRYQIWTTVVDWIHPDLKRIVIEYVDRIIFHENYNAGTYQNDIALIEMKKDGNKKDCELPRSIPACVPWSPYLFQPNDTCIVSGWGREKDNERVFSLQWGEVKLISNCSKFYGNRFYEKEMECAGTYDGSIDACKGDSGGPLVCMDANNVTYVWGVVSWGENCGKPEFPGVYTKVANYFDWISYHVGRPFISQYNV
amount of CFI needed to cleave 50% of the available C3b (re-analysis, 4-parameter logistic) [2]: The amount of CFI needed to cleave 50% of the available C3b was approximately 632 ng/ml

B5: CFI: Complement factor I protein purchased from Complement Technology Inc (protein)
chain: B2 chain
EC50 of CFI (PBS control, no BAM) (C3b [4]; CFI 10 ng/mL to 30 μg/mL, absence of BAM1-42): 0.686 µg/mL
amount of CFI needed to cleave 50% of the available C3b (C3b [4]; no BAM, reanalysis with reparametrized 4-parameter logistic equation): approximately 632 ng/ml

Now from value to molecule, other results behind:

CFI bioactivity (inverse of EC50 in µg) [1]: 1640 U/µg of CFI
EC50 of CFI in cofactor assay (iC3b generation, 80 CFH and C3b, 1 hr), three experiments [1]: 0.0608 µg/mL
EC50 recombinant to purified ratio [1]: 1.8
Molecule: Recombinant complement factor I (GSK) (from UniProt P05156 19-583) (enzyme)

effect on CFI bioactivity (in words) (CFI): didn't affect CFI bioactivity
Molecule: Triton X-100
effect on inhibitory activity of BAM (in words) (BAM): abolished the inhibitory activity of BAM completely

EC50 recombinant to purified ratio (C3b [3]; model fitted to data of three experiments, P<0.001 vs 1): 1.8 (1.5-2.2)
times lower bioactivity than material purified from serum (C3b [3]; overall result): approximately 2 times
estimated EC50 of CFI (95% limits in parentheses) (C3b [3]): 60.8 (21.6-168.0) ng/ml
B3: recombinant CFI: CFI generated by recombinant means (GSK) (protein)
chain: B2 chain

estimated EC50 of CFI (95% limits in parentheses) (C3b [3]): 32.6 (9.3-108.8) ng/ml
B4: purified CFI: CFI purified from serum (CompTech) (protein)
chain: B2 chain
